Assay results reported in article PMC12808120.

Legend:
IGF2BP3 (recombinant) [1] = target: IGF2BP3 (recombinant) (UniProt O00425); test: filter binding; conditions: FBA/EMSA: 10 mM Tris-Cl pH 7.5, 50 mM KCl, 1 mM EDTA, 0.05% Triton X, 5% glycerol, 1 mM DTT, 37 C 20 min, pull-down: lysate mixed 1:1 with 2x TENT (100 mM Tris …)
IGF2BP3 (recombinant) [2] = target: IGF2BP3 (recombinant) (UniProt O00425); test: EMSA; conditions: no binding up to 100 nM; Kd >>100 nM; FBA/EMSA: 10 mM Tris-Cl pH 7.5, 50 mM KCl, 1 mM EDTA, 0.05% Triton X, 5% glycerol, 1 mM DTT, 37 C 20 min; pull-down: lysate mixed 1:1 with 2x TENT (100 mM Tris …)

IGF2BP3 (recombinant), sequence (O00425 whole entry): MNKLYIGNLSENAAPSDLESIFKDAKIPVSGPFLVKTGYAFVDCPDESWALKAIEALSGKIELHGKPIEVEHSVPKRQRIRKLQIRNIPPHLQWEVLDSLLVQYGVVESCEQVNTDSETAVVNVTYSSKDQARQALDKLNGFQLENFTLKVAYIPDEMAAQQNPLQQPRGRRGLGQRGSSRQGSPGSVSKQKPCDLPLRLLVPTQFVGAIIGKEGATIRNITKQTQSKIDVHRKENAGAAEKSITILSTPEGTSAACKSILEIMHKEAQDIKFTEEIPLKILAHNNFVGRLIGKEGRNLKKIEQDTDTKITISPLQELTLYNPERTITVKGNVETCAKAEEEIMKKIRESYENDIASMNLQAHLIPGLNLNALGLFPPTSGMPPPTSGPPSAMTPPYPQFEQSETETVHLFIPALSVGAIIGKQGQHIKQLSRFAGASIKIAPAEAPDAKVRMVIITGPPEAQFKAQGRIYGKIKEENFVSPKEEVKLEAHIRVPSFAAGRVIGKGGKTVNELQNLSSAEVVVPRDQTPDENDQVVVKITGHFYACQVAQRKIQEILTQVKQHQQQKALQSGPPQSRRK

| Substance | Kd (IGF2BP3 (recombinant) [1]) | Kd (IGF2BP3 (recombinant) [2]) | Kd (IGF2BP3 (recombinant) [1]; no binding up to 100 nM, Kd >>100 nM) |
| --- | --- | --- | --- |
| FMR1-5'UTR RNA with 16 CGG repeats (FMR1-16CGG) | 3.15 nM | – | – |
| UAAUAAUAAUAAUAAUAAUAAUAAUAAUAAUAAUAAUAAUAAUAAUAAUAAUAAUAAUAA [(UAA)20 RNA] | – | > 100 nM | > 100 nM |
